This passage reports Kd results from PMC12678408.

The target of assay [1] is peptidase domain (PD) of Pipistrellus abramus angiotensin-converting enzyme 2 (ACE2) (Pipistrellus abramus) (UniProt C7ECT9). The experiment in a line: BLI.
Assay [2] concerns the target peptidase domain (PD) of Pitta sordida ACE2 (Pitta sordida). The experiment in a line: BLI.

Regarding “RBD of BtPa-BetaCoV/GD2013 (GenBank accession: AIA62343.1) (domain or fragment)”, the Kd was 23.4 nM in assay [1] and 138 nM in assay [2].
